Data taken from the supplement of paper PMC11780869.

Tested on: Bacillus subtilis
Assay: cleaved RNA product abundance (RNA/gDNA barcode ratio) relative to median wild-type variant (ratio to wild type); higher = more accumulation of the downstream cleavage product
Conditions: cleavage site: cggR-gapA (positions -7 to +36 mutated)
In short: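 Sequencing of barcodes from gel-selected, reverse-transcribed cleaved RNA and from genomic DNA, with UMI collapsing, yielded a per-construct RNA:gDNA ratio. Scaled to the median construct with the unmutated site, this ratio is the cleaved product abundance. The barcoded reporters (truncated aprE or tetM mRNAs with mutagenized RNase Y cleavage-site windows) were integrated into the B. subtilis chromosome, and cultures grew in LB at 37°C from OD600 0.0003 to 0.3.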

[1] = experiment (reporter, strain, medium): exp 2b: truncated aprE reporter, strain BJT200
[2] = experiment (reporter, strain, medium): exp 4a: truncated aprE reporter, strain BJT201 with 2% xylose (RNase J1 expressed)
[3] = experiment (reporter, strain, medium): exp 6: tetM reporter, strain 168

Sequence	cleaved RNA product abundance [1]	cleaved RNA product abundance [2]	cleaved RNA product abundance [3]
ACAGACGAAGGAGCCGCAAAGAAGTTATAAAGGGATGAATAATCCCTCAATATAAATATCTCTCACTTATTTAAA	0.363	0.454	0.4
ACAGACGAAGGAGCCGCAAAGAAGTTATAAAGGGATGAATAATCCCTCAATATAAATATTTCTCACTTATTTAAA	–	0.51	–
ACAGACGAAGGAGCCGCAAAGAAGTTATAAAGGGATGAATAATCCCTCAATATAAATTTCTCTCACTTATTTAAA	–	0.387	–
ACAGACGAAGGAGCCGCAAAGAAGTTATAAAGGGATGAATAATCCCTCAATATAATTATCTCTCACTTATTTAAA	–	0.171	–
ACAGACGAAGGAGCCGCAAAGAAGTTATAAAGGGATGAATAATCCCTCAATATAGATATCTCTCACTTATTTAAA	0.19	0.475	–
ACAGACGAAGGAGCCGCAAAGAAGTTATAAAGGGATGAATAATCCCTCAATATATATATCTCTCACTTATTTAAA	0.359	0.58	–
ACAGACGAAGGAGCCGCAAAGAAGTTATAAAGGGATGAATAATCCCTCAATATTAATATCTCTCACTTATTTAAA	–	0.105	–
ACAGACGAAGGAGCCGCAAAGAAGTTATAAAGGGATGAATAATCCCTCAATTTAAATATCTCTCACTTATTTAAA	0.146	0.152	–
ACAGACGAAGGAGCCGCAAAGAAGTTATAAAGGGATGAATAATCCCTCACTATAAATATCTCTCACTTATTTAAA	–	0.322	–
ACAGACGAAGGAGCCGCAAAGAAGTTATAAAGGGATGAATAATCCCTCCATATAAATATCTCTCACTTATTTAAA	–	0.266	–
ACAGACGAAGGAGCCGCAAAGAAGTTATAAAGGGATGAATAATCCCTCTATATAAATATCTCTCACTTATTTAAA	–	0.941	–
ACAGACGAAGGAGCCGCAAAGAAGTTATAAAGGGATGAATAATCCCTGAATATAAATATCTCTCACTTATTTAAA	–	0.634	–
ACAGACGAAGGAGCCGCAAAGAAGTTATAAAGGGATGAATAATCCCTTAATATAAATATCTCTCACTTATTTAAA	0.56	0.593	–
ACAGACGAAGGAGCCGCAAAGAAGTTATAAAGGGATGAATAATCCGTCAATATAAATATCTCTCACTTATTTAAA	0.154	–	–
ACAGACGAAGGAGCCGCAAAGAAGTTATAAAGGGATGAATAATCCTTCAATATAAATATCTCTCACTTATTTAAA	0.174	0.283	–
ACAGACGAAGGAGCCGCAAAGAAGTTATAAAGGGATGAATAATCTCTCAATATAAATATCTCTCACTTATTTAAA	–	0.338	–
ACAGACGAAGGAGCCGCAAAGAAGTTATAAAGGGATGAATAATGCCTCAATATAAATATCTCTCACTTATTTAAA	0.113	–	–
ACAGACGAAGGAGCCGCAAAGAAGTTATAAAGGGATGAATAATTCCTCAATATAAATATCTCTCACTTATTTAAA	–	0.293	–
ACAGACGAAGGAGCCGCAAAGAAGTTATAAAGGGATGAATACTCCCTCAATATAAATATCTCTCACTTATTTAAA	–	0.287	–
ACAGACGAAGGAGCCGCAAAGAAGTTATAAAGGGATGAATATTCCCTCAATATAAATATCTCTCACTTATTTAAA	–	0.281	–

Sequence	cleaved RNA product abundance [1]	cleaved RNA product abundance [2]	cleaved RNA product abundance [3]
ACAGACGAAGGAGCCGCAAAGAAGTTATAAAGGGATGAATGATCCCTCAATATAAATATCTCTCACTTATTTAAA	0.193	0.273	–
ACAGACGAAGGAGCCGCAAAGAAGTTATAAAGGGATGAATTATCCCTCAATATAAATATCTCTCACTTATTTAAA	0.279	0.469	–
ACAGACGAAGGAGCCGCAAAGAAGTTATAAAGGGATGACTAATCCCTCAATATAAATATCTCTCACTTATTTAAA	–	0.286	0.319
ACAGACGAAGGAGCCGCAAAGAAGTTATAAAGGGATGCATAATCCCTCAATATAAATATCTCTCACTTATTTAAA	0.309	0.241	–
ACAGACGAAGGAGCCGCAAAGAAGTTATAAAGGGATGTATAATCCCTCAATATAAATATCTCTCACTTATTTAAA	0.322	0.401	–
ACAGACGAAGGAGCCGCAAAGAAGTTATAAAGGGATTAATAATCCCTCAATATAAATATCTCTCACTTATTTAAA	0.333	0.362	–
ACAGACGAAGGAGCCGCAAAGAAGTTATAAAGGGCTGAATAATCCCTCAATATAAATATCTCTCACTTATTTAAA	–	0.286	–
ACAGACGAAGGAGCCGCAAAGAAGTTATAAAGGGGTGAATAATCCCTCAATATAAATATCTCTCACTTATTTAAA	–	0.422	–
ACAGACGAAGGAGCCGCAAAGAAGTTATAAAGGGTTGAATAATCCCTCAATATAAATATCTCTCACTTATTTAAA	0.163	0.24	–
ACAGACGAAGGAGCCGCAAAGAAGTTATAAAGGTATGAATAATCCCTCAATATAAATATCTCTCACTTATTTAAA	0.0925	0.0975	–
ACAGACGAAGGAGCCGCAAAGAAGTTATAAAGTGATGAATAATCCCTCAATATAAATATCTCTCACTTATTTAAA	0.0907	0.117	–
ACAGACGAAGGAGCCGCAAAGAAGTTATAAATGGATGAATAATCCCTCAATATAAATATCTCTCACTTATTTAAA	0.113	0.165	–
ACAGACGAAGGAGCCGCAAAGAAGTTATAAGGGGATGAATAATCCCTCAATATAAATATCTCTCACTTATTTAAA	–	0.49	–
ACAGACGAAGGAGCCGCAAAGAAGTTATAATGGGATGAATAATCCCTCAATATAAATATCTCTCACTTATTTAAA	0.29	0.293	–
ACAGACGAAGGAGCCGCAAAGAAGTTATATAGGGATGAATAATCCCTCAATATAAATATCTCTCACTTATTTAAA	–	0.664	–
ACAGACGAAGGAGCCGCAAAGAAGTTATCAAATGATGAATAATCCCTCAATATAAATATCTCTCACTTATTTAAA	–	0.123	–
ACAGACGAAGGAGCCGCAAAGAAGTTATCAACGGATGAATAATCCCTCAATATAAATATCTCTCACTTATTTAAA	–	0.15	–
ACAGACGAAGGAGCCGCAAAGAAGTTATCAAGAGATGAATAATCCCTCAATATAAATATCTCTCACTTATTTAAA	0.0893	0.116	–
ACAGACGAAGGAGCCGCAAAGAAGTTATCAAGCGATGAATAATCCCTCAATATAAATATCTCTCACTTATTTAAA	–	0.0711	–
ACAGACGAAGGAGCCGCAAAGAAGTTATCAAGGAATGAATAATCCCTCAATATAAATATCTCTCACTTATTTAAA	–	0.11	–

Sequence	cleaved RNA product abundance [1]	cleaved RNA product abundance [2]	cleaved RNA product abundance [3]
ACAGACGAAGGAGCCGCAAAGAAGTTATCAAGGCATGAATAATCCCTCAATATAAATATCTCTCACTTATTTAAA	–	0.0787	–
ACAGACGAAGGAGCCGCAAAGAAGTTATCAAGGGATAAATAATCCCTCAATATAAATATCTCTCACTTATTTAAA	–	0.234	–
ACAGACGAAGGAGCCGCAAAGAAGTTATCAAGGGATCAATAATCCCTCAATATAAATATCTCTCACTTATTTAAA	0.24	–	–
ACAGACGAAGGAGCCGCAAAGAAGTTATCAAGGGATGAAAAATCCCTCAATATAAATATCTCTCACTTATTTAAA	–	0.272	–
ACAGACGAAGGAGCCGCAAAGAAGTTATCAAGGGATGAATAAACCCTCAATATAAATATCTCTCACTTATTTAAA	0.148	0.205	–
ACAGACGAAGGAGCCGCAAAGAAGTTATCAAGGGATGAATAATACCTCAATATAAATATCTCTCACTTATTTAAA	0.149	0.132	–
ACAGACGAAGGAGCCGCAAAGAAGTTATCAAGGGATGAATAATCACTCAATATAAATATCTCTCACTTATTTAAA	0.123	0.139	–
ACAGACGAAGGAGCCGCAAAGAAGTTATCAAGGGATGAATAATCCATCAATATAAATATCTCTCACTTATTTAAA	–	0.321	–
ACAGACGAAGGAGCCGCAAAGAAGTTATCAAGGGATGAATAATCCCTAAATATAAATATCTCTCACTTATTTAAA	–	0.333	–
ACAGACGAAGGAGCCGCAAAGAAGTTATCAAGGGATGAATAATCCCTCAAAATAAATATCTCTCACTTATTTAAA	0.2	0.289	–
ACAGACGAAGGAGCCGCAAAGAAGTTATCAAGGGATGAATAATCCCTCAATATAAATATCTCTCACTTATTTAAA	0.27	0.385	0.34
ACAGACGAAGGAGCCGCAAAGAAGTTATCAAGGGATGAATAATCCCTCAATATAAATGTCTCTCACTTATTTAAA	0.192	0.206	–
ACAGACGAAGGAGCCGCAAAGAAGTTATCAAGGGATGAATAATCCCTCAATATAATTATCTCTCACTTATTTAAA	–	0.218	–
ACAGACGAAGGAGCCGCAAAGAAGTTATCAAGGGATGAATAATCCCTCACTATAAATATCTCTCACTTATTTAAA	–	0.306	–
ACAGACGAAGGAGCCGCAAAGAAGTTATCAAGGGATGAATAATCCCTCATTATAAATATCTCTCACTTATTTAAA	0.216	–	–
ACAGACGAAGGAGCCGCAAAGAAGTTATCAAGGGATGAATAATCGCTCAATATAAATATCTCTCACTTATTTAAA	–	0.0908	–
ACAGACGAAGGAGCCGCAAAGAAGTTATCAAGGGATGAATAATGCCTCAATATAAATATCTCTCACTTATTTAAA	–	0.19	–
ACAGACGAAGGAGCCGCAAAGAAGTTATCAAGGGATGAATATTCCCTCAATATAAATATCTCTCACTTATTTAAA	–	0.27	–
ACAGACGAAGGAGCCGCAAAGAAGTTATCAAGGGATGAATTATCCCTCAATATAAATATCTCTCACTTATTTAAA	–	0.25	–
